Experiment [1] addresses Wild type CCR5, endogenous on human monocyte-derived macrophages (human (endogenous in monocyte-derived macrophages)) (UniProt P51681).
For experiment [2], the target named is Wild type CCR5, endogenous on human monocyte-derived macrophages (human (endogenous in monocyte-derived macrophages)), P51681. As to the kind of experiment: radioligand binding; competition: human macrophages (membranes) pretreated with different amounts of CCR5-T4L or CCL5, or CCL5 plus CCR5-T4L; specific binding of 0.3 nmol/L [125I]-CCL5, 2 h at 37°C, unbound ligand removed through a 10% sucrose/PBS cushion, gamma counting. To be noted: remark: other sources report otherwise.

As a reminder, the EC50 is the concentration at which the effect is half-maximal.

In turn, “Soluble recombinant CCR5-T4L protein (receptor)” gave a [35S]GTPγS binding to membranes of human MDM (G-protein activation), EC50 in experiment [1] of 5460 nM.

B1: Chemokine (C-C motif) ligand 5 (CCL5), unlabelled, P13501 24-91 (ligand)
chain: SPYSSDTTPCCFAYIARPLPRAHIKEYFYTSGKCSNPAVVFVTRKNRQVCANPEKKWVREYINSLEMS
Take B1: in experiment [2], the EC50 stood at 0.046 nM.

The record behind these values is paper PMC4496087.
